According to paper doi:10.1101/2022.01.25.477770 (bioRxiv, 2022):

Assays:
Assay in all cases: ELISA
Settings in all cases: both partners purified
[1] = molecular target: T1, WIV1 prefusion-stabilized spike (S2P) (Bat SARS-like coronavirus WIV1 …, UniProt U5WI05, stabilised)
T1 construct: also called WIV1 S2P

[2] = molecular target: T2, SHC014 prefusion-stabilized spike (S2P) (Bat SARS-like coronavirus RsSHC014 …, UniProt U5WLK5, stabilised)
T2 construct: also called SHC014 S2P

[3] = molecular target: T3, SARS-CoV prefusion-stabilized spike (S2P) (SARS-CoV Urbani (AAP13441.1), UniProt P59594, stabilised)
T3 construct: also called SARS-CoV S2P

[4] = molecular target: T4, RaTG13 prefusion-stabilized spike (S2P) (Bat coronavirus RaTG13 (GenBank …, UniProt A0ABF7PLN6, stabilised))
T4 construct: also called RaTG13 S2P

[5] = molecular target: T5, MERS-CoV prefusion-stabilized spike (S2P) (MERS-CoV EMC/2012 (GenBank AFS88936), UniProt K0BRG7, stabilised)
T5 construct: also called MERS-CoV S2P

Measured: binding result

B1: antibody WS6 (IgG) (antibody, V domains shown)
VH: EVQFQQSGTVLARPGASVKMSCKASGYTFTNYWIHWVKQRPGQGLEYIGGTYPGNGDTTYNQKFKGKAKVTAVTPTSTAYMDLSSLTNEDSAVYYCTRTGSYFDYWGQGTTLTVSS
VL: QIVLTQSPAIMSASPGEKVTISCSATSSVSYIYWYQQRPGSSPKPWIYRTSNLASGVPVRFSGSGSGTSYSLTISNMEAEDAATYYCQQYQSYPPTFGAGTKLELK
notes: also called mAb WS6
binds: all assays above
